Test results taken from the supplement of paper PMC10567573.

B1: MFF (parent)
chain: YTEGISQRMRVPEKLKVAPPNADL

Variants of: B1
Assay: protein stability index of a GFP-peptide fusion (GPS, HEK-293T) (PSI 1-6); higher = more stable
Details: c terminus: a fixed tail appended
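Further: lentivirally expressed fusions sorted by FACS into six bins by GFP to DsRed ratio, PSI derived from sequencing read proportions per bin multiplied by bin number.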

Variant | protein stability index
STEGISQRMRVPEKLKVAPPNADL [Y1S] | 4.48
LTEGISQRMRVPEKLKVAPPNADL [Y1L] | 4.21
ATEGISQRMRVPEKLKVAPPNADL [Y1A] | 4.62
HTEGISQRMRVPEKLKVAPPNADL [Y1H] | 4.52
RTEGISQRMRVPEKLKVAPPNADL [Y1R] | 4.22
CTEGISQRMRVPEKLKVAPPNADL [Y1C] | 4.21
WTEGISQRMRVPEKLKVAPPNADL [Y1W] | 4.21
QTEGISQRMRVPEKLKVAPPNADL [Y1Q] | 4.41
VTEGISQRMRVPEKLKVAPPNADL [Y1V] | 4.25
PTEGISQRMRVPEKLKVAPPNADL [Y1P] | 4.64
MTEGISQRMRVPEKLKVAPPNADL [Y1M] | 4.59
KTEGISQRMRVPEKLKVAPPNADL [Y1K] | 4.27
NTEGISQRMRVPEKLKVAPPNADL [Y1N] | 4.67
DTEGISQRMRVPEKLKVAPPNADL [Y1D] | 4.48
ETEGISQRMRVPEKLKVAPPNADL [Y1E] | 4.55
GTEGISQRMRVPEKLKVAPPNADL [Y1G] | 4.57
TTEGISQRMRVPEKLKVAPPNADL [Y1T] | 4.31
FTEGISQRMRVPEKLKVAPPNADL [Y1F] | 2.52
YTEGISQRNRVPEKLKVAPPNADL [M9N] | 2.96
YTEGISQRHRVPEKLKVAPPNADL [M9H] | 3.17
YTEGISQRGRVPEKLKVAPPNADL [M9G] | 2.89
YTEGISQRCRVPEKLKVAPPNADL [M9C] | 2.49
YTEGISQRPRVPEKLKVAPPNADL [M9P] | 3.27
YTEGISQRSRVPEKLKVAPPNADL [M9S] | 2.55

Variant | protein stability index
YTEGISQRARVPEKLKVAPPNADL [M9A] | 2.41
YTEGISQRQRVPEKLKVAPPNADL [M9Q] | 2.79
YTEGISQRDRVPEKLKVAPPNADL [M9D] | 3.57
YTEGISQRFRVPEKLKVAPPNADL [M9F] | 3.02
YTEGISQRRRVPEKLKVAPPNADL [M9R] | 2.54
YTEGISQRLRVPEKLKVAPPNADL [M9L] | 3.22
YTEGISQRTRVPEKLKVAPPNADL [M9T] | 2.74
YTEGISQRERVPEKLKVAPPNADL [M9E] | 2.89
YTEGISQRIRVPEKLKVAPPNADL [M9I] | 2.2
YTEGISQRYRVPEKLKVAPPNADL [M9Y] | 2.57
YTEGISQRVRVPEKLKVAPPNADL [M9V] | 2.35
YTEGISQRKRVPEKLKVAPPNADL [M9K] | 3.37
YTEGISQRWRVPEKLKVAPPNADL [M9W] | 2.01
YTEGIVQRMRVPEKLKVAPPNADL [S6V] | 2.19
YTEGIPQRMRVPEKLKVAPPNADL [S6P] | 2.29
YTEGIMQRMRVPEKLKVAPPNADL [S6M] | 2.09
YTEGIDQRMRVPEKLKVAPPNADL [S6D] | 3.51
YTEGIEQRMRVPEKLKVAPPNADL [S6E] | 3.91
YTEGIYQRMRVPEKLKVAPPNADL [S6Y] | 3.1
YTEGIKQRMRVPEKLKVAPPNADL [S6K] | 2.45
YTEGIFQRMRVPEKLKVAPPNADL [S6F] | 2.14
YTEGIHQRMRVPEKLKVAPPNADL [S6H] | 2.63
YTEGITQRMRVPEKLKVAPPNADL [S6T] | 2.98
YTEGINQRMRVPEKLKVAPPNADL [S6N] | 2.93

Variant | protein stability index
YTEGILQRMRVPEKLKVAPPNADL [S6L] | 2.85
YTEGIRQRMRVPEKLKVAPPNADL [S6R] | 2.94
YTEGICQRMRVPEKLKVAPPNADL [S6C] | 2.6
YTEGIAQRMRVPEKLKVAPPNADL [S6A] | 2.76
YTEGIIQRMRVPEKLKVAPPNADL [S6I] | 2.51
YTEGIWQRMRVPEKLKVAPPNADL [S6W] | 2.52
YTEGIQQRMRVPEKLKVAPPNADL [S6Q] | 2.71
YTEGIGQRMRVPEKLKVAPPNADL [S6G] | 2.86
YTEGGSQRMRVPEKLKVAPPNADL [I5G] | 3.72
YTEGHSQRMRVPEKLKVAPPNADL [I5H] | 3.81
YTEGTSQRMRVPEKLKVAPPNADL [I5T] | 3.9
YTEGKSQRMRVPEKLKVAPPNADL [I5K] | 4.18
YTEGYSQRMRVPEKLKVAPPNADL [I5Y] | 2.41
YTEGWSQRMRVPEKLKVAPPNADL [I5W] | 2.75
YTEGCSQRMRVPEKLKVAPPNADL [I5C] | 4.16
YTEGNSQRMRVPEKLKVAPPNADL [I5N] | 4.03
YTEGQSQRMRVPEKLKVAPPNADL [I5Q] | 4.44
YTEGRSQRMRVPEKLKVAPPNADL [I5R] | 3.78
YTEGSSQRMRVPEKLKVAPPNADL [I5S] | 4.16
YTEGESQRMRVPEKLKVAPPNADL [I5E] | 4.78
YTEGASQRMRVPEKLKVAPPNADL [I5A] | 4.19
YTEGVSQRMRVPEKLKVAPPNADL [I5V] | 3.63
YTEGDSQRMRVPEKLKVAPPNADL [I5D] | 4.55
YTEGLSQRMRVPEKLKVAPPNADL [I5L] | 3.06

Variant | protein stability index
YTEGPSQRMRVPEKLKVAPPNADL [I5P] | 4.33
YTEGMSQRMRVPEKLKVAPPNADL [I5M] | 3.4
YTEGFSQRMRVPEKLKVAPPNADL [I5F] | 2.13
YTEFISQRMRVPEKLKVAPPNADL [G4F] | 2.32
YTECISQRMRVPEKLKVAPPNADL [G4C] | 3.47
YTEEISQRMRVPEKLKVAPPNADL [G4E] | 3.61
YTELISQRMRVPEKLKVAPPNADL [G4L] | 2.47
YTENISQRMRVPEKLKVAPPNADL [G4N] | 3.75
YTEAISQRMRVPEKLKVAPPNADL [G4A] | 3.9
YTEMISQRMRVPEKLKVAPPNADL [G4M] | 2.52
YTEDISQRMRVPEKLKVAPPNADL [G4D] | 4.46
YTEWISQRMRVPEKLKVAPPNADL [G4W] | 2.25
YTEVISQRMRVPEKLKVAPPNADL [G4V] | 3.21
YTESISQRMRVPEKLKVAPPNADL [G4S] | 3.88
YTEHISQRMRVPEKLKVAPPNADL [G4H] | 3.46
YTEPISQRMRVPEKLKVAPPNADL [G4P] | 3.79
YTEKISQRMRVPEKLKVAPPNADL [G4K] | 3.63
YTEYISQRMRVPEKLKVAPPNADL [G4Y] | 2.69
YTETISQRMRVPEKLKVAPPNADL [G4T] | 3.45
YTERISQRMRVPEKLKVAPPNADL [G4R] | 3.72
YTEIISQRMRVPEKLKVAPPNADL [G4I] | 3
YTEQISQRMRVPEKLKVAPPNADL [G4Q] | 3.5
